Substitutions are numbered along the chain they refer to. Numbers in names are those of the source.
B1: variant Fc-fragment Fc-5-104 (other)
chain: EPKSCDKTHTCPPCPAPELLGGPSVFLFPPKPKDTLMISRTPEVTCVVVDVSHEDPEVKFNWYVDGVEVHNAKTKPREEQYNSTYRVVSVLTVLHQDWLNGKEYKCKVSNKALPAPIEKTISKAKGQPREPQVYTLPPSRDELTKNQVSLTCLVKGFYPSDIAVEWESNGGCGHEYMWCGGGQPENNYKTTPPVLDSDGSFFLYSKLTVDKSRWQQGNVFSCSVMHEALHNHYTQKSLSLSPGK
notes: soluble elsewhere
B2: variant Fc-fragment Fc-5-112 (other)
chain: B1 chain with G173A, H174L, E175Y, Y176P, M177T, W178N
notes: soluble elsewhere
B3: variant Fc-fragment Fc-5-51 (other)
chain: B1 chain with G173H, H174L, E175P, Y176F, M177A, W178V
notes: soluble elsewhere
B4: variant Fc-fragment Fc-5-69 (other)
chain: B1 chain with G173W, H174P, E175L, Y176Q, M177D, W178Y
notes: soluble elsewhere
B5: variant Fc-fragment Fc-5-113 (other)
chain: B1 chain with G173Q, H174G, E175M, Y176W, M177T
notes: soluble elsewhere
B6: variant Fc-fragment Fc-5-97 (other)
chain: B1 chain with G173N, H174M, E175L, Y176W, M177G, W178S
notes: library L5 isolate
B7: variant Fc-fragment Fc-5-55 (other)
chain: B1 chain with G173M, H174Q, E175V, Y176W, M177G, W178S
notes: library L5 isolate
B8: variant Fc-fragment Fc-5-85 (other)
chain: B1 chain with G173I, H174G, E175P, Y176F, M177W
notes: library L5 isolate
B9: variant Fc-fragment Fc-5-99 (other)
chain: B1 chain with G173Y, H174I, E175T, Y176Q, M177K, W178L
notes: library L5 isolate
B10: variant Fc-fragment Fc-5-79 (other)
chain: B1 chain with G173V, H174N, E175T, Y176W, M177W, W178S
notes: library L5 isolate
B11: variant Fc-fragment Fc-5-70 (other)
chain: B1 chain with G173M, H174V, E175P, Y176F, M177S, W178M
notes: library L5 isolate
B12: variant Fc-fragment Fc-5-95 (other)
chain: B1 chain with G173D, H174R, E175P, Y176V, M177W, W178F
notes: library L5 isolate
B13: variant Fc-fragment Fc-5-106-M4Q (other)
chain: B1 chain with G173V, H174F, E175N, Y176Q, M177F, W178N
B14: variant Fc-fragment Fc-5-69-W1Y (other)
chain: B1 chain with G173Y, H174P, E175L, Y176Q, M177D, W178Y
notes: also called Fc-5-69-WIY
B15: variant Fc-fragment Fc-5-106-M4S (other)
chain: B1 chain with G173V, H174F, E175N, Y176S, M177F, W178N
B16: variant Fc-fragment Fc-5-106-M4H (other)
chain: B1 chain with G173V, H174F, E175N, Y176H, M177F, W178N
B17: variant Fc-fragment Fc-5-69-W1F (other)
chain: B1 chain with G173F, H174P, E175L, Y176Q, M177D, W178Y
notes: also called Fc-5-69-WIF
B18: variant Fc-fragment Fc-5-106-M4N (other)
chain: B1 chain with G173V, H174F, E175N, Y176N, M177F, W178N
B19: variant Fc-fragment Fc-5-106-M4G (other)
chain: B1 chain with G173V, H174F, E175N, Y176G, M177F, W178N
B20: variant Fc-fragment Fc-5-106-M4A (other)
chain: B1 chain with G173V, H174F, E175N, Y176A, M177F, W178N
B21: variant Fc-fragment 5-1-3 (other)
chain: B1 chain with C172G, G173C, H174G, E175M, Y176P, M177I, W178E, C179F, G180C
B22: variant Fc-fragment 5-1-4 (other)
chain: EPKSCDKTHTCPPCPAPELLGGPSVFLFPPKPKDTLMISRTPEVTCVVVDVSHEDPEVKFNWYVDGVEVHNAKTKPREEQYNSTYRVVSVLTVLHQDWLNGKEYKCKVSNKALPAPIEKTISKAKGQPREPQVYTLPPSRDELTKNQVSLTCLVKGFYPSDIAVEWESNGQGGCGMPIEFCGGPENNYKTTPPVLDSDGSFFLYSKLTVDKSRWQQGNVFSCSVMHEALHNHYTQKSLSLSPGK
B23: variant Fc-fragment 5-1-2 (other)
chain: EPKSCDKTHTCPPCPAPELLGGPSVFLFPPKPKDTLMISRTPEVTCVVVDVSHEDPEVKFNWYVDGVEVHNAKTKPREEQYNSTYRVVSVLTVLHQDWLNGKEYKCKVSNKALPAPIEKTISKAKGQPREPQVYTLPPSRDELTKNQVSLTCLVKGFYPSDIAVEWESGGCGMPIEFCGGNGQPENNYKTTPPVLDSDGSFFLYSKLTVDKSRWQQGNVFSCSVMHEALHNHYTQKSLSLSPGK
B24: variant Fc-fragment 5-1-1 (other)
chain: EPKSCDKTHTCPPCPAPELLGGPSVFLFPPKPKDTLMISRTPEVTCVVVDVSHEDPEVKFNWYVDGVEVHNAKTKPREEQYNSTYRVVSVLTVLHQDWLNGKEYKCKVSNKALPAPIEKTISKAKGQPREPQVYTLPPSRDELTKNQVSLTCLVKGFYPSDIAVEWEGGCGMPIEFCGGSNGQPENNYKTTPPVLDSDGSFFLYSKLTVDKSRWQQGNVFSCSVMHEALHNHYTQKSLSLSPGK
B25: variant Fc-fragment 5-1-9 (other)
chain: EPKSCDKTHTCPPCPAPELLGGPSVFLFPPKPKDTLMISRTPEVTCVVVDVSHEDPEVKFNWYVDGVEVHNAKTKPREEQYNSTYRVVSVLTVLHQDWLNGKEYKCKVSNKALPAPIEKTISKAKGQPREPQVYTLPPSRDELTKNQVSLTCLVKGFYPSDIAVEWESGGCGMPIEFCGGPENNYKTTPPVLDSDGSFFLYSKLTVDKSRWQQGNVFSCSVMHEALHNHYTQKSLSLSPGK
B26: variant Fc-fragment 5-1-10 (other)
chain: EPKSCDKTHTCPPCPAPELLGGPSVFLFPPKPKDTLMISRTPEVTCVVVDVSHEDPEVKFNWYVDGVEVHNAKTKPREEQYNSTYRVVSVLTVLHQDWLNGKEYKCKVSNKALPAPIEKTISKAKGQPREPQVYTLPPSRDELTKNQVSLTCLVKGFYPSDIAVEWESGGGCGMPIEFCGGGPENNYKTTPPVLDSDGSFFLYSKLTVDKSRWQQGNVFSCSVMHEALHNHYTQKSLSLSPGK
B27: variant Fc-fragment 5-1-5 (other)
chain: EPKSCDKTHTCPPCPAPELLGGPSVFLFPPKPKDTLMISRTPEVTCVVVDVSHEDPEVKFNWYVDGVEVHNAKTKPREEQYNSTYRVVSVLTVLHQDWLNGKEYKCKVSNKALPAPIEKTISKAKGQPREPQVYTLPPSRDELTKNQVSLTCLVKGFYPSDIAVEWESNGQPGGCGMPIEFCGGENNYKTTPPVLDSDGSFFLYSKLTVDKSRWQQGNVFSCSVMHEALHNHYTQKSLSLSPGK

What follows are binders tested against T1, human neonatal Fc receptor (hFcRn) (human, UniProt P55899 24-290; P61769 21-119) (assay: phage ELISA pH 6;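 note: higher score means stronger binding and above about 3 to 5 exceeds background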).
T1 construct: Biotinylated in the ELISA, Octet and yeast assays; also called human FcRn; huFcRn
T1 sequence (P55899 24-290 limits assumed, chain 1 of 2): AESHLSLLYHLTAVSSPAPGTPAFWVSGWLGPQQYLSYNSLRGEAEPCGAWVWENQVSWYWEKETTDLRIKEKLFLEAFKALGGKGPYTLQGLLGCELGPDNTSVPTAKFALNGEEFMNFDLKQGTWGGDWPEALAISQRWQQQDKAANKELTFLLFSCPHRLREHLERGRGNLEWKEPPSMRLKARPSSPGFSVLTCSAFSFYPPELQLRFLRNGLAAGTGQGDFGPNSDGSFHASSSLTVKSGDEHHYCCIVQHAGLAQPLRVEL
T1 sequence (P61769 21-119 limits assumed, chain 2 of 2): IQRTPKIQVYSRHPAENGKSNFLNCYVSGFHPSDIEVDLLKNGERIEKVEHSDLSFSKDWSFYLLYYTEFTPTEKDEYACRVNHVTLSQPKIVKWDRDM

| Binder | ELISA score |
| --- | --- |
| B1 | 82.4 |
| B2 | 62.7 |
| B3 | 82.5 |
| B4 | 76.7 |
| B5 | 56.1 |

The binders below were run against T1, human neonatal Fc receptor (hFcRn) (assay: phage ELISA pH 7.4;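 note: higher score means stronger binding and above about 3 to 5 exceeds background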).

| Binder | ELISA score |
| --- | --- |
| B2 | 0.4 |
| B3 | 0.4 |
| B4 | 0.6 |
| B5 | 0.7 |

Each binder was assayed against T1, human neonatal Fc receptor (hFcRn) (assay: SPR competition pH 5.5).
Procedure: (§1) Binding of variant Fc-fragments to human and cynomolgus monkey FcRn was tested using a BIAcore® T100 analysis system (GE Healthcare Bio-Sciences AB Private Limited Liability Company, Uppsala, Sweden) at both pH 5.5 and pH 7.4. The test consisted of incubating various concentrations of the variant Fc-fragments or control Fc-fragments with a fixed amount of human or cynomolgus monkey FcRn under binding conditions and subsequently measuring the amount of free, unbound FcRn in these mixtures by binding to a surface (in a flow cell of a CM5 (Biacore) chip) on which an Fc-fragment was immobilized. […] Thus, the amount of unbound FcRn in the mixture was quantitatively ascertained by surface plasmon resonance through use of the BIAcore® T100 analysis system. […] Initially, a group of 23 variant-Fc-fragments (Fc-5-1 being considered a control) identified in the experiments described above were tested for binding to human FcRn.
(§2) To obtain a reasonable signal for the different molecules and conditions tested, different assay conditions were used. For assays at pH 5.5, 10 nM of human or cynomolgus monkey FcRn was mixed with serial dilutions of the variant and control Fc-fragments being tested (which ranged from 0.1˜2,000 nM) and incubated for 1 hour at room temperature in 10 mM sodium acetate, pH 5.5, 150 mM NaCl, 0.005% P20, 0.1 mg/mL BSA. As positive controls, […] human and cynomolgus monkey FcRn were each incubated in the same solution, for the same time, and at the same temperature described immediately above, but without an added Fc-fragment.

| Binder | EC50 [nM] |
| --- | --- |
| B6 | 25 |
| B7 | 49 |
| B1 | 15 |
| B2 | 46 |
| B3 | 16 |
| B5 | 20 |
| B8 | 18 |
| B9 | 15 |
| B10 | 53 |
| B11 | 26 |
| B12 | 42 |

What follows are binders tested against T2, cynomolgus monkey FcRn (cynomolgus monkey, UniProt Q8SPV9 24-297; Q8SPW0 21-119, limits assumed) (assay: SPR competition pH 5.5).
T2 construct: also called Cynomolgus FcRn
T2 sequence (Q8SPV9 24-297 limits assumed, chain 1 of 2): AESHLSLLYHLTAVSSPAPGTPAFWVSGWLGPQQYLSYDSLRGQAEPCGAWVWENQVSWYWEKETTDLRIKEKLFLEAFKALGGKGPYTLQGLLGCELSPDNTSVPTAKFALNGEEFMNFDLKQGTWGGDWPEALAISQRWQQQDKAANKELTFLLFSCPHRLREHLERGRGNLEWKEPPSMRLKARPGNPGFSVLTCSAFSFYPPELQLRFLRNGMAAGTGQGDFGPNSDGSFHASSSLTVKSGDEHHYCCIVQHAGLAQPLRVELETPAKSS
T2 sequence (Q8SPW0 21-119 limits assumed, chain 2 of 2): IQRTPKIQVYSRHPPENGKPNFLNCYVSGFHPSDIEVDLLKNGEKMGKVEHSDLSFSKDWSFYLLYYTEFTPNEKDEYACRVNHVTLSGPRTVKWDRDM
Procedure: as §1, §2

| Binder | EC50 [nM] |
| --- | --- |
| B6 | 31 |
| B7 | 53 |
| B1 | 16 |
| B2 | 49 |
| B3 | 21 |
| B4 | 18 |
| B5 | 27 |
| B8 | 25 |
| B9 | 16 |
| B10 | 63 |
| B11 | 27 |
| B12 | 50 |

Target: T1, human neonatal Fc receptor (hFcRn)
Experiment: SPR competition pH 5.5
Remark: another data set of the same source

| Binder | EC50 [nM] |
| --- | --- |
| B13 | 34 |
| B14 | 140 |
| B15 | 58 |
| B16 | 100 |
| B17 | 57 |
| B18 | 100 |
| B4 | 20 |
| B19 | 100 |
| B20 | 27 |

Each binder was assayed against T1, human neonatal Fc receptor (hFcRn) (assay: BLI (Octet), association pH 6, dissociation pH 7.4).
Description: To further characterize some of the variant Fc-fragments identified by the phage ELISA, binding of the variant Fc-fragments to FcRn at pH 6 and 7.4 was characterized for a subset of the identified variant Fc-fragments. DNA encoding selected variant Fc-fragment isolates, all from library L5, was introduced into a mammalian expression vector, which was used to transfect 293 6E cells using deacylated PEI essentially as described by Thomas et al. (Proc. Natl. Acad. Sci. 102(16): 5679-5684, 2005), the relevant portions of which are incorporated herein by reference. […] Concentrations were calculated using a standard curve created with a purified Fc fusion protein.
Biotinylated hFcRn at 100 nM was captured on streptavidin (SA) biosensors (ForteBio Inc., 18-5019) off-line at RT for 2 hours. Using these biotinylated hFcRn-coated SA biosensors in the Octet Red® system, association and dissociation of unlabeled proteins can be detected in real time via […] of light. […] Three association and dissociation conditions were set up: (1) association at pH 6 and dissociation at pH 6; (2) association at pH 6 and dissociation at pH 7.4; and (3) association at pH 7.4 and dissociation at pH 7.4. SA biosensors coated with biotinylated hFcRN were dipped into buffer at a specific pH for 1 min and then soaked in the samples containing variant Fc-fragments or controls at a specific pH for 5 min to allow binding to FcRn. The Fc biosensors were then soaked in buffer at a specific pH for 5 minutes more to allow the bound Fc-fragments to dissociate from FcRn. Detection of binding and dissociation of the Fc-fragments was possible through the use of bio-layer interferometry as implemented using the Octet Red® system, so that binding and dissociation were detected in real time.

| Binder | binding result |
| --- | --- |
| B21 | binds |
| B22 | binds |
| B23 | binds |
| B24 | binds |
| B25 | binds |
| B26 | binds |
| B27 | binds |
